# According to PMC9519967 (2022):
# B1: His-tagged Grb3-3 N-terminal SH3 and SH2 domain (NSH3SH2Δ40) (domain or fragment)
# chain: MEAIAKYDFKATADDELSFKRGDILKVLNEECDQNWYKAELNGKDGFIPKNYIEMKPHPFGNDVQHFKVLRDGAGKYFLWVVKFNSLNELVDYHRSTSVSRNQQIFLRDIE
# modifications: Atto488 NHS ester label, 1:1 protein:dye
# Columns and labels:
# Test in all cases: MST
# [1] = target: Sos-C-Tail-8 truncated peptide (without GST) (UniProt Q07889)
# [2] = target: Sos-C-Tail-5 truncated peptide (without GST) (UniProt Q07889)
# [3] = target: Sos-C-Tail-6 truncated peptide (without GST) (UniProt Q07889)
binder,measurement,setting,value
B1,Kd,[1],71.1 µM
same,Kd,[2],2.36 µM
same,Kd,[3],3.41 µM
